Laboratory results from US6861508B2, “Transcriptional intermediary factor-2” (Institut National de la Sante et de la Recherche Medicale, priority 1996, dated 2005).
Changes are numbered by the printed parent chain.

T1: (His)6-TIF2.1, E. coli-expressed purified recombinant TIF2.1 (human, UniProt Q15596 624-1287)
T1 construct: also called His-tagged TIF2.1; purified TIF2.1 protein; not shown: (His)6 tag of pET15b
T1 sequence: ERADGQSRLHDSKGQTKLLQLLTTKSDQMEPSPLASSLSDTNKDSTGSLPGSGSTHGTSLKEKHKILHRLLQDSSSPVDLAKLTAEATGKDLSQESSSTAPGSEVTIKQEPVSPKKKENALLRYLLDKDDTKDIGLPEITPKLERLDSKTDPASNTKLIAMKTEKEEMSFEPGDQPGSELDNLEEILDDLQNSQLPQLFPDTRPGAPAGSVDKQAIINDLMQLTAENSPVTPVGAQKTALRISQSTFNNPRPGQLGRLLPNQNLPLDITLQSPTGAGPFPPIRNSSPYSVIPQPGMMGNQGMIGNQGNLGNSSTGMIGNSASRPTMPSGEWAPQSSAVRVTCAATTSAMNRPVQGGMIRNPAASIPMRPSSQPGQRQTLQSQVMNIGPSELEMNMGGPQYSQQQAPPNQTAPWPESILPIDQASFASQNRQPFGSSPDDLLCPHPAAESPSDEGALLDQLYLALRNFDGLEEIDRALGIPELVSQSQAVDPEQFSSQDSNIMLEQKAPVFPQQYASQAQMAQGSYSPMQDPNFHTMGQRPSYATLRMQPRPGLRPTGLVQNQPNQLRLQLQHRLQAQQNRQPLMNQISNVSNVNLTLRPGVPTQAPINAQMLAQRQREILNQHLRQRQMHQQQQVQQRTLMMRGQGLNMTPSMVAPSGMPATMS

T2: GST-hRARα(DEF) (pGEX2T-hRARα(DEF), amino acids 153-462) (human, UniProt P10276 153-462)
T2 construct: range 153-462; Bacterially produced; also called GST-RAR; GST-RARα(DEF); not shown: glutathione-S-transferase (GST) of pGEX2T (Pharmacia)
T2 sequence (looked up): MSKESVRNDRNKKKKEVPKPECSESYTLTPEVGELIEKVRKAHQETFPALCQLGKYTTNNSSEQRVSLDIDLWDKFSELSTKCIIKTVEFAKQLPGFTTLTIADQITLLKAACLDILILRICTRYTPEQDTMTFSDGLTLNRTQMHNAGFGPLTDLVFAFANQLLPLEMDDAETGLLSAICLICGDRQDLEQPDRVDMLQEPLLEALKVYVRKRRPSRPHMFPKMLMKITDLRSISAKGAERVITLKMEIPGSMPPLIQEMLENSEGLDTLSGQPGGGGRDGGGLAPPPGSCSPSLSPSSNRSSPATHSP

T3: GST-mRXRα(DE) (pGEX2T-mRXRα(DE), amino acids 205-467) (mouse, UniProt P28700 205-467)
T3 construct: range 205-467; also called GST-RXR; GST-RXRα(DE); not shown: glutathione-S-transferase (GST) of pGEX2T (Pharmacia)
T3 sequence (looked up): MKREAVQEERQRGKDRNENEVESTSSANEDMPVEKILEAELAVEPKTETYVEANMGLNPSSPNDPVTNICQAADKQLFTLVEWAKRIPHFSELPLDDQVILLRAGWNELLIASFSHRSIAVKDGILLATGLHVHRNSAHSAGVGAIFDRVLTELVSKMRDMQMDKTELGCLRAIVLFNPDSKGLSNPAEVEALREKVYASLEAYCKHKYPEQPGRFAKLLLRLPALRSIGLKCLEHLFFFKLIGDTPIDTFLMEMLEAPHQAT

B1: TIF2.13: TIF2 fragment Pro1011 to Ser1122 (protein, UniProt Q15596 1011-1122, looked up, fragment)
chain: PSELEMNMGGPQYSQQQAPPNQTAPWPESILPIDQASFASQNRQPFGSSPDDLLCPHPAAESPSDEGALLDQLYLALRNFDGLEEIDRALGIPELVSQSQAVDPEQFSSQDS
B2: GST-hTAFII20 (printed hTAFn20) (other, human, UniProt Q16514 1-161, looked up)
chain: MNQFGPSALINLSNFSSIKPEPASTPPQGSMANSTAVVKIPGTPGAGGRLSPENNQVLTKKKLQDLVREVDPNEQLDEDVEEMLLQIADDFIESVVTAACQLARHRKSSTLEVKDVQLHLERQWNMWIPGFGSEEIRPYKKACTTEAHKQRMALIRKTTKK
notes: not shown: glutathione-S-transferase (GST)
B3: TIF2.1 m13 (LL→AA in NR box motifs I and III) (other)
chain: T1 sequence with L21A, L22A, L125A, L126A
notes: also called single intact NR box II
B4: TIF2.1 m23 (LL→AA in NR box motifs II and III) (other)
chain: T1 sequence with L70A, L71A, L125A, L126A
notes: also called single intact NR box I
B5: GST-hTAFII55 (printed hTAFn55) (other, human, UniProt Q15545 1-349, looked up)
chain: MSKSKDDAPHELESQFILRLPPEYASTVRRAVQSGHVNLKDRLTIELHPDGRHGIVRVDRVPLASKLVDLPCVMESLKTIDKKTFYKTADICQMLVSTVDGDLYPPVEEPVASTDPKASKKKDKDKEKKFIWNHGITLPLKNVRKRRFRKTAKKKYIESPDVEKEVKRLLSTDAEAVSTRWEIIAEDETKEAENQGLDISSPGMSGHRQGHDSLEHDELREIFNDLSSSSEDEDETQHQDEEDINIIDTEEDLERQLQDKLNESDEQHQENEGTNQLVMGIQKQIDNMKGKLQETQDRAKRQEDLIMKVENLALKNRFQAVLDELKQKEDREKEQLSSLQEELESLLEK
notes: as for B2
B6: GST-hTAFII18 (printed hTAFn18) (other, human, UniProt Q15543 1-124, looked up)
chain: MADEEEDPTFEEENEEIGGGAEGGQGKRKRLFSKELRCMMYGFGDDQNPYTESVDILEDLVIEFITEMTHKAMSIGRQGRVQVEDIVFLIRKDPRKFARVKDLLTMNEELKRARKAFDEANYGS
notes: as for B2

Tests used:
[1] = test system: GAL4 reporter; assay: GAL4 DBD-TIF2 fusion CAT reporter transactivation assay; format: cell-based; settings: Cos-1 and/or HeLa cells
Procedure: (a) HeLa cells were cotransfected with 1 μg (17m)5-βG-CAT and 10 μg GAL(1-147) or 1,3 and 10 μg GAL(1-147)-TIF2.1, respectively.
(c) Analysis of the transcriptional activity of GAL-TIF2 fusion proteins. Cos-1 and HeLa cells were transfected with 3 lag of plasmids expressing different regions of TIF2 fised to the DNA-binding domain of the yeast transcription factor GALA together with 1 μg of the (7m)5-G-CAT reporterplasmid. CAT assays were performed as described (Bocquel, M. T. et al., Nucl Acids Res. 17:2581-2595 (1989)). Quantitative data on CAT reporter expression were obtained either by phosphoimager analysis (BAS2000, Fuji) of ^14C-labeled CAT reaction products separated by thin-layer chromatography, or using the CAT ELISA Kit (Boehringer Mannheim). In all cases, CAT activities were normalized to the β-galactosidase concentrations resulting from cotransfection of 1 μg of pCMVPGal (gift from T. Lerouge) as internal control. Fold inductions above the GAL4 DBD value are indicated. The mean and standard deviation of at least three experiments are shown. A representative Western blot, illustrating the expression levels of the GAL4-TIF2 fusion proteins, expressed from 10 μg of the corresponding expression vectors, is shown on the left.
(b) Transcriptional activation of TIF2 AF-1 mutants. Cos-1 and HeLa cells were cotransfected with 3 μg of plasmids expressing different mutants of the TIF2 AF-1 fused to the DNA-binding domain of the yeast transcription factor GAL4 together with 1 μg of the (17m)5-G-CAT reporter plasmid. Fold inductions above the activation seen with the GAL4 DBD alone are indicated. The values represent the mean of at least three experiments.
(a) Transcriptional activation by TIF2.13 and TIF2.13 mutants. Cos-1 and HeLa cells were cotransfected with 3 μg of plasmids expressing the TIF2.13 region and the indicated TIF2.13 mutants fused to the DNA-binding domain of the yeast transcription factor GALA together with 1 μg of the (17m)5-G-CAT reporter plasmid. Fold inductions above the GAL4 DBD 1-fold value are indicated. The mean and standard deviation obtained from at least four experiments are shown. The expression levels of the GAL4-TIF2.13 fusion proteins were confirmed by western blotting (data not shown).
Transient transfections of HeLa and Cos-1 cells were performed as described (Gronemeyer et al., (1987); Bocquel, M. T. et al., Nucl. Acids Res. 17:2581-2595 (1989)).

[2] = test system: GAL-CBP; assay: two hybrid analysis of CBP-TIF2 interaction in HeLa cells; format: cell-based
Procedure: (e) Two hybrid analysis of the CBP-TIF2 interaction in mammalian cells in vivo. HeLa cells were transfected with 0.2 μg of the GAL4 or GALA-CBP (expressing CBP residues 1872 to 2165) expression vectors together with 0.2 μg of the VP16 or VPI6-TF2 expression vectors in the presence of 2 μg of (17m)5-TATA-CAT reporter plasmid. Fold induction relative to the GAL-CBP activity is indicated. The mean of three experiments is shown; in each case, values varied by less than ±20%.
HeLa cells were transfected with 0.2 μg of GAL4 or GAL-CBP expression vectors together with 0.2 μg of VP16 or VP16-TIF2.13 expression vectors in the presence of 1 μg of (17m)5-TATA-CAT reporter plasmid. Data are represented as fold induction of the activity seen with GAL-CBP alone. The mean and standard, deviation obtained from ten experiments are shown. The expression levels were confirmed by Western blotting with antibodies directed against GAL4 DBD and VP16 AAD (data not shown).
Furthermore, it was reported that SRC-1, which belongs to the same gene family as TIF2, interacts with CBP and p300 (Kamei, Y. et al., Cell 85:403-414 (1996); Yao, T. P. et al., Proc. Natl. Acad. Sci. USA 93:10626-10631 (1996); Hanstein, B., et al., Proc. Natl. Acad Sci USA 93:11540-11545 (1996)). Using GST-fusion protein-based interaction and animal cell-based two hybrid assays, we therefore analyzed whether TIF2 could also interact with CBP. […] A GST-CBP fusion protein was expressed in E. coli and used for puU-down assays with in vitro translated TIF2 polypeptides (FIG. 7d).

[3] = biological target: T1, (His)6-TIF2.1, E. coli-expressed …; assay: GST interaction assay (not shown)
[4] = biological target: T2, GST-hRARα(DEF) (pGEX2T-hRARα(DEF), …); assay: in vitro GST interaction of TIF2.1 point mutants, with ligand, relative to TIF2.1 wild type
[5] = biological target: T3, GST-mRXRα(DE) (pGEX2T-mRXRα(DE), amino …); assay: as above

| Molecule | binding result [3] | times less efficient in NR interaction than the wild-type TIF2 [4] | times less efficient in NR interaction than the wild-type TIF2 [5] | also measured |
| --- | --- | --- | --- | --- |
| B1 | – | – | – | transcriptional activation of GAL4 reporter by GAL4 DBD fusion [1]: potent transcriptional activity; interaction with GAL-CBP, two hybrid [2]: also interacted with CBP in vivo |
| B2 | no binding | – | – | – |
| B3 | – | 5 times less efficient than wild type | 5 times less efficient than wild type | – |
| B4 | – | 20 times less efficient than wild type | 20 times less efficient than wild type | – |
| B5 | no binding | – | – | – |
| B6 | no binding | – | – | – |
